{
  "source": "patent US20220356223A1",
  "biological_target": "human high-affinity IL2 receptor (IL2Rαβγ) (human) (UniProt P01589)",
  "sequence (P01589 22-272, chain 1 of 3)": "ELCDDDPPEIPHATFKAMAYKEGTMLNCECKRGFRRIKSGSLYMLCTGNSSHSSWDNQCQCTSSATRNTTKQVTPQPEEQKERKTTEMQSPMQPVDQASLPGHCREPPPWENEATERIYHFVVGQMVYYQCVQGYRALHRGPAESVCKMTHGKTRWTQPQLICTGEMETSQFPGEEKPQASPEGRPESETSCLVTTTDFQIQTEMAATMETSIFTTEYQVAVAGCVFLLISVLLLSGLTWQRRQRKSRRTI",
  "sequence (P14784 27-551, chain 2 of 3, further chain)": "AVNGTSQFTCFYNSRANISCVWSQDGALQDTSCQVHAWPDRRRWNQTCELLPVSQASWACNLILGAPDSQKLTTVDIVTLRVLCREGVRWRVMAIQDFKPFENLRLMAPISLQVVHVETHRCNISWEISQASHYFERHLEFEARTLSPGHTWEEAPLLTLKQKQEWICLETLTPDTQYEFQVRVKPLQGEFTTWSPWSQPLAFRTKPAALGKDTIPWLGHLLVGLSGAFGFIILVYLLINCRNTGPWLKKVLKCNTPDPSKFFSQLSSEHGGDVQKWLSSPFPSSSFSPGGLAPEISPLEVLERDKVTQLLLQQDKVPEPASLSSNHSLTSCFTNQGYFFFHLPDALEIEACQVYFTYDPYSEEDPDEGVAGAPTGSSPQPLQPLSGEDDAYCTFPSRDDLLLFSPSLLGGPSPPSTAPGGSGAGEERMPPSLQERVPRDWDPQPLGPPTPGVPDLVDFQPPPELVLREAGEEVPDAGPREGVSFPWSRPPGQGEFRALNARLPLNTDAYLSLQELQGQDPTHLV",
  "sequence (P31785 23-369, chain 3 of 3, further chain)": "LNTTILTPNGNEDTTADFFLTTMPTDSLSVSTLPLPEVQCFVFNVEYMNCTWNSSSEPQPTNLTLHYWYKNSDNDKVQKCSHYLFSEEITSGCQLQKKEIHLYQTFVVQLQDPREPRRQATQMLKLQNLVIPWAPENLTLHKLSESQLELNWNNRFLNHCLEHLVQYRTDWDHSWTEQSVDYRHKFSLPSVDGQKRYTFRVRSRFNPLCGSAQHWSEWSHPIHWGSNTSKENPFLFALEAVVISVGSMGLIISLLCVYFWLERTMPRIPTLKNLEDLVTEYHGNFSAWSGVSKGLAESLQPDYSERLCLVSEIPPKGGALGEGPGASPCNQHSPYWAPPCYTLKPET",
  "assay": "cell-based or functional assay",
  "data": [
    {"substance": "hAlb-hIL2 (ligand)", "values": [
      {"measurement": "EC50, STAT5 phosphorylation, human CD4+CD25+ Treg cells (%-supernatant)", "result": 0.0311}
    ]}
  ]
}
